Assay results: US20050089970A1

Biological target: CCR5 (UniProt P51681)
Assay: cell-based or functional assay

UniProt P51681, sequence (P51681 whole entry): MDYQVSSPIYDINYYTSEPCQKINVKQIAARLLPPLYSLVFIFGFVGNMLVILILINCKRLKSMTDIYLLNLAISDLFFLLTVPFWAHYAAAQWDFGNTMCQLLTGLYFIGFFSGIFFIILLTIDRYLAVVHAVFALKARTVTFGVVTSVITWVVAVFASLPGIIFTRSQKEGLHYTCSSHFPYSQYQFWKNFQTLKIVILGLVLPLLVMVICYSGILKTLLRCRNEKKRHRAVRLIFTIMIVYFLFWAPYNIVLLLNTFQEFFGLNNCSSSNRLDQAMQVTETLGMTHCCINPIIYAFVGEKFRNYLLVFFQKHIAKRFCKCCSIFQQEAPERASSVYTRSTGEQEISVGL

Row | Substance | Mean Relative Potency (IC50 of cell fusion inhibition relative to AOP-RANTES = 100) (relative to AOP-RANTES = 100) | percentage fusion inhibition at the lowest dilution | Average infectivity IC50 (cell-free viral infection assay) | Cell-fusion result for comparison (IC50) | EC50, HeLa P4-CCR5/HeLa-Env-ADA cell fusion
1 | AOP-RANTES-K(palmitoyl)-G (from UniProt P13501 25-91) (ligand) | 45 | – | – | – | –
2 | NNY-P2Thz-Y3Chg-RANTES (4-68) (from UniProt P13501 25-91) (ligand) | 2 | > 50% | – | – | –
3 | NNY-P2Thz-Y3tButA-RANTES (4-68) (from UniProt P13501 25-91) (ligand) | 4 | > 50% | – | – | –
4 | NNY-P-Y3Chg-RANTES (4-68) (from UniProt P13501 25-91) (ligand) | 7 | > 50% | 0.012 nM | 0.026 nM | –
5 | NNY-P-Y3tbuA-RANTES (4-68) (from UniProt P13501 25-91) (ligand) | 7 | > 50% | 0.014 nM | 0.038 nM | –
6 | aminooxypentane-RANTES (2-68), CH3-(CH2)4-O-N=CH-CO-RANTES (2-68) (from UniProt P13501 25-91) (ligand) | 100 | – | 0.145 nM | 0.48 nM | 1.81 nM
7 | n-nonanoyl-RANTES (2-68), CH3-(CH2)7-C(O)-RANTES (2-68) (from UniProt P13501 25-91) (ligand) | – | – | 0.024 nM | 0.097 nM | 0.323 nM
